Measured values from paper PMC12102759 (2025).

B1: SH3BP2 peptide 408-423 (SH3 domain-binding protein 2), 16-mer library wild type / TNKS ANK (TNKS 12 ANK repeats, residues 174-649) (parent complex)
chain 1: PQLPHLQRSPPDGQSF
chain 2: TGVPAVSGALRELLEACRNGDVSRVKRLVDAANVNAKDMAGRKSSPLHFAAGFGRKDVVEHLLQMGANVHARDDGGLIPLHNACSFGHAEVVSLLLCQGADPNARDNWNYTPLHEAAIKGKIDVCIVLLQHGADPNIRNTDGKSALDLADPSAKAVLTGEYKKDELLEAARSGNEEKLMALLTPLNVNCHASDGRKSTPLHLAAGYNRVRIVQLLLQHGADVHAKDKGGLVPLHNACSYGHYEVTELLLKHGACVNAMDLWQFTPLHEAASKNRVEVCSLLLSHGADPTLVNCHGKSAVDMAPTPELRERLTYEFKGHSLLQAAREADLAKVKKTLALEIINFKQPQSHETALHCAVASLHPKRKQVTELLLRKGANVNEKNKDFMTPLHVAAERAHNDVMEVLHKHGAKMNALDTLGQTALHRAALAGHLQTCRLLLSYGSDPSIISLQGFTAAQMGNEAVQQILSESTPIRTSD

Variants of: B1
Experiment: proteomic peptide phage display deep mutational scan (ProP-PD DMS): M13 P8 16-mer library selected against immobilised GST-tagged bait for four days (rounds), NGS of the eluted pools per day and pseudo-replica; bait immobilised on MaxiSorp plates (10 µg), library pre-cleared on GST, 2 h binding at 4 °C, five washes; one round per day, days 1-4; value from days 2 and 3

| Variant | screen value |
| --- | --- |
| chain 1 S9F | 0.00032 average fractional NGS count over selection days 2 and 3 (reads of this peptide / all reads for the bait, averaged over … |
| chain 1 L3V | 0.000203 average fractional NGS count over selection days 2 and 3 (reads of this peptide / all reads for the bait, averaged over … |
| chain 1 L3P | 0.000341 average fractional NGS count over selection days 2 and 3 (reads of this peptide / all reads for the bait, averaged over … |
| chain 1 L3N | 0.000433 average fractional NGS count over selection days 2 and 3 (reads of this peptide / all reads for the bait, averaged over … |
| chain 1 L3E | 0.00036 average fractional NGS count over selection days 2 and 3 (reads of this peptide / all reads for the bait, averaged over … |
| chain 1 L3I | 0.000205 average fractional NGS count over selection days 2 and 3 (reads of this peptide / all reads for the bait, averaged over … |
| chain 1 L3R | 0.000308 average fractional NGS count over selection days 2 and 3 (reads of this peptide / all reads for the bait, averaged over … |
| chain 1 L3S | 0.000201 average fractional NGS count over selection days 2 and 3 (reads of this peptide / all reads for the bait, averaged over … |
| chain 1 L3T | 0.000337 average fractional NGS count over selection days 2 and 3 (reads of this peptide / all reads for the bait, averaged over … |
| chain 1 L3A | 0.000216 average fractional NGS count over selection days 2 and 3 (reads of this peptide / all reads for the bait, averaged over … |
| chain 1 L3M | 0.000961 average fractional NGS count over selection days 2 and 3 (reads of this peptide / all reads for the bait, averaged over … |
| chain 1 Q14V | 0.00071 average fractional NGS count over selection days 2 and 3 (reads of this peptide / all reads for the bait, averaged over … |
| chain 1 Q14I | 0.000236 average fractional NGS count over selection days 2 and 3 (reads of this peptide / all reads for the bait, averaged over … |
| chain 1 Q14G | 0.000379 average fractional NGS count over selection days 2 and 3 (reads of this peptide / all reads for the bait, averaged over … |
| chain 1 Q14E | 0.000266 average fractional NGS count over selection days 2 and 3 (reads of this peptide / all reads for the bait, averaged over … |
| chain 1 Q14S | 0.0015 average fractional NGS count over selection days 2 and 3 (reads of this peptide / all reads for the bait, averaged over … |
| chain 1 Q14M | 0.00362 average fractional NGS count over selection days 2 and 3 (reads of this peptide / all reads for the bait, averaged over … |
| chain 1 Q14Y | 0.000878 average fractional NGS count over selection days 2 and 3 (reads of this peptide / all reads for the bait, averaged over … |
| chain 1 F16L | 0.00209 average fractional NGS count over selection days 2 and 3 (reads of this peptide / all reads for the bait, averaged over … |
| chain 1 F16R | 0.00135 average fractional NGS count over selection days 2 and 3 (reads of this peptide / all reads for the bait, averaged over … |
| chain 1 F16G | 0.000376 average fractional NGS count over selection days 2 and 3 (reads of this peptide / all reads for the bait, averaged over … |
| chain 1 F16N | 0.000118 average fractional NGS count over selection days 2 and 3 (reads of this peptide / all reads for the bait, averaged over … |
| chain 1 F16T | 0.000194 average fractional NGS count over selection days 2 and 3 (reads of this peptide / all reads for the bait, averaged over … |
| chain 1 F16H | 0.00294 average fractional NGS count over selection days 2 and 3 (reads of this peptide / all reads for the bait, averaged over … |
| chain 1 F16V | 0.00271 average fractional NGS count over selection days 2 and 3 (reads of this peptide / all reads for the bait, averaged over … |

| Variant | screen value |
| --- | --- |
| chain 1 F16P | 0.0012 average fractional NGS count over selection days 2 and 3 (reads of this peptide / all reads for the bait, averaged over … |
| chain 1 F16W | 0.000272 average fractional NGS count over selection days 2 and 3 (reads of this peptide / all reads for the bait, averaged over … |
| chain 1 F16Y | 0.011 average fractional NGS count over selection days 2 and 3 (reads of this peptide / all reads for the bait, averaged over … |
| chain 1 F16I | 0.000483 average fractional NGS count over selection days 2 and 3 (reads of this peptide / all reads for the bait, averaged over … |
| chain 1 D12I | 0.000718 average fractional NGS count over selection days 2 and 3 (reads of this peptide / all reads for the bait, averaged over … |
| chain 1 D12M | 0.000556 average fractional NGS count over selection days 2 and 3 (reads of this peptide / all reads for the bait, averaged over … |
| chain 1 D12S | 0.000143 average fractional NGS count over selection days 2 and 3 (reads of this peptide / all reads for the bait, averaged over … |
| chain 1 D12Q | 0.000387 average fractional NGS count over selection days 2 and 3 (reads of this peptide / all reads for the bait, averaged over … |
| chain 1 D12E | 0.00128 average fractional NGS count over selection days 2 and 3 (reads of this peptide / all reads for the bait, averaged over … |
| chain 1 S15N | 0.000592 average fractional NGS count over selection days 2 and 3 (reads of this peptide / all reads for the bait, averaged over … |
| chain 1 S15T | 0.000479 average fractional NGS count over selection days 2 and 3 (reads of this peptide / all reads for the bait, averaged over … |
| chain 1 S15A | 0.00154 average fractional NGS count over selection days 2 and 3 (reads of this peptide / all reads for the bait, averaged over … |
| chain 1 S15M | 0.000289 average fractional NGS count over selection days 2 and 3 (reads of this peptide / all reads for the bait, averaged over … |
| chain 1 S15V | 0.000578 average fractional NGS count over selection days 2 and 3 (reads of this peptide / all reads for the bait, averaged over … |
| chain 1 S15E | 0.000326 average fractional NGS count over selection days 2 and 3 (reads of this peptide / all reads for the bait, averaged over … |
| chain 1 S15Y | 0.000762 average fractional NGS count over selection days 2 and 3 (reads of this peptide / all reads for the bait, averaged over … |
| chain 1 S15K | 0.000127 average fractional NGS count over selection days 2 and 3 (reads of this peptide / all reads for the bait, averaged over … |
| chain 1 S15P | 0.000545 average fractional NGS count over selection days 2 and 3 (reads of this peptide / all reads for the bait, averaged over … |
| chain 1 S15H | 0.000369 average fractional NGS count over selection days 2 and 3 (reads of this peptide / all reads for the bait, averaged over … |
| chain 1 S15I | 0.000286 average fractional NGS count over selection days 2 and 3 (reads of this peptide / all reads for the bait, averaged over … |
| chain 1 S15L | 0.00151 average fractional NGS count over selection days 2 and 3 (reads of this peptide / all reads for the bait, averaged over … |
| chain 1 S15D | 0.000182 average fractional NGS count over selection days 2 and 3 (reads of this peptide / all reads for the bait, averaged over … |
| chain 1 P10N | 0.00386 average fractional NGS count over selection days 2 and 3 (reads of this peptide / all reads for the bait, averaged over … |
| chain 1 P10S | 0.000405 average fractional NGS count over selection days 2 and 3 (reads of this peptide / all reads for the bait, averaged over … |
| chain 1 P10E | 0.00215 average fractional NGS count over selection days 2 and 3 (reads of this peptide / all reads for the bait, averaged over … |

| Variant | screen value |
| --- | --- |
| chain 1 P10Q | 0.00105 average fractional NGS count over selection days 2 and 3 (reads of this peptide / all reads for the bait, averaged over … |
| chain 1 P10I | 0.00249 average fractional NGS count over selection days 2 and 3 (reads of this peptide / all reads for the bait, averaged over … |
| chain 1 P10W | 0.000201 average fractional NGS count over selection days 2 and 3 (reads of this peptide / all reads for the bait, averaged over … |
| chain 1 P10D | 0.000749 average fractional NGS count over selection days 2 and 3 (reads of this peptide / all reads for the bait, averaged over … |
| chain 1 P10Y | 0.000858 average fractional NGS count over selection days 2 and 3 (reads of this peptide / all reads for the bait, averaged over … |
| chain 1 P10G | 0.00637 average fractional NGS count over selection days 2 and 3 (reads of this peptide / all reads for the bait, averaged over … |
| chain 1 P10H | 0.0139 average fractional NGS count over selection days 2 and 3 (reads of this peptide / all reads for the bait, averaged over … |
| chain 1 P10T | 0.00166 average fractional NGS count over selection days 2 and 3 (reads of this peptide / all reads for the bait, averaged over … |
| chain 1 P10K | 0.00107 average fractional NGS count over selection days 2 and 3 (reads of this peptide / all reads for the bait, averaged over … |
| chain 1 H5S | 0.000337 average fractional NGS count over selection days 2 and 3 (reads of this peptide / all reads for the bait, averaged over … |
| chain 1 H5Q | 0.00258 average fractional NGS count over selection days 2 and 3 (reads of this peptide / all reads for the bait, averaged over … |
| chain 1 H5F | 0.00112 average fractional NGS count over selection days 2 and 3 (reads of this peptide / all reads for the bait, averaged over … |
| chain 1 H5V | 0.000333 average fractional NGS count over selection days 2 and 3 (reads of this peptide / all reads for the bait, averaged over … |
| chain 1 H5R | 0.00137 average fractional NGS count over selection days 2 and 3 (reads of this peptide / all reads for the bait, averaged over … |
| chain 1 H5G | 0.000153 average fractional NGS count over selection days 2 and 3 (reads of this peptide / all reads for the bait, averaged over … |
| chain 1 P4E | 0.000494 average fractional NGS count over selection days 2 and 3 (reads of this peptide / all reads for the bait, averaged over … |
| chain 1 P4Q | 0.000351 average fractional NGS count over selection days 2 and 3 (reads of this peptide / all reads for the bait, averaged over … |
| chain 1 P4D | 0.000447 average fractional NGS count over selection days 2 and 3 (reads of this peptide / all reads for the bait, averaged over … |
| chain 1 P4H | 0.00111 average fractional NGS count over selection days 2 and 3 (reads of this peptide / all reads for the bait, averaged over … |
| chain 1 P4I | 0.000387 average fractional NGS count over selection days 2 and 3 (reads of this peptide / all reads for the bait, averaged over … |
| chain 1 P4L | 0.000189 average fractional NGS count over selection days 2 and 3 (reads of this peptide / all reads for the bait, averaged over … |
| chain 1 P4S | 0.000214 average fractional NGS count over selection days 2 and 3 (reads of this peptide / all reads for the bait, averaged over … |
| chain 1 P4A | 0.00484 average fractional NGS count over selection days 2 and 3 (reads of this peptide / all reads for the bait, averaged over … |
| chain 1 P4M | 0.00173 average fractional NGS count over selection days 2 and 3 (reads of this peptide / all reads for the bait, averaged over … |
| chain 1 P4W | 0.000229 average fractional NGS count over selection days 2 and 3 (reads of this peptide / all reads for the bait, averaged over … |
